Data published in patent US10487308B2, “Culture medium composition” (NISSAN CHEMICAL CORPORATION, priority 2014, dated 2019).

Assay: Viscosity measurement and state of medium composition
Assay type: physicochemical
Conditions: for viscosity: 37° C., 100 rpm
Description: Deacylated gellan gum (KELCOGEL CG-LA, manufactured by SANSHO Co., Ltd.) was suspended in pure water to 0.4% (w/v), and dissolved by stirring with heating at 90° C. This aqueous solution was allowed to cool to room temperature with stirring, and sterilized at 121° C. for 20 min in an autoclave. A 2-fold concentration of DMEM/F-12 medium (manufactured by Aldrich, 50 mL) and sterilization water (47.5 mL) were placed in a 300 mL tall beaker with stirring by a homomixer (3000 rpm) at room temperature, aqueous deacylated gellan gum solution (2.5 mL) was added, and the mixture was continuously stirred for 1 min to prepare a deacylated gellan gum medium composition with a final concentration of 0.01%. Medium compositions added with aqueous deacylated gellan gum solution with final concentrations of 0.02, 0.03 and 0.05% (w/v) were similarly prepared. The viscosity of the medium compositions was measured using an E type viscometer (manufactured by Toki Sangyo Co., Ltd., Viscometer TVE-22 L, standard roter 1° 34′×R24) under 37° C. condition at 100 rpm for 5 min.
The medium compositions prepared above were subjected to a suspension test of HeLa cell spheres and a viscosity measurement, in the same manner as with the deacylated gellan gum-containing medium. The viscosity of 1.0% (w/v) methylcellulose was measured at 50 rpm due to the measurement range of the apparatus.
In the same manner as in Reference Experimental Example 2, spheres of HeLa cells were formed, and several tens of the spheres were added to each medium (1 mL) prepared above, the mixture was stood still at 37° C. for 1 hr, and the suspended state of the sphere cells was visually observed. […] Furthermore, it was confirmed that addition of an equal amount of the medium to the cell suspension and centrifugation (300 to 400G, for 5 min) thereof result in sedimentation and recovery of the spheres of HeLa cells.
By a method similar to that for the polysaccharide mixture of Reference Experimental Example 9, DMEM/F-12 media containing deacylated gellan gum at a final concentration of 0.005, 0.01% (w/v) and other polysaccharide were prepared. The final concentration of polysaccharide was set to 0.1% (w/v) for xanthan gum, sodium alginate, locust bean gum, 0.2% (w/v) for methylcellulose, and 0.05% (w/v) for K-carageenan and diutan gum. The state of each medium composition and the viscosity measured by a method similar to that in Analysis Example 1 are shown in Tables 11-16.

collagen
state (0.01% (w/v) in DMEM/F-12): liquid
state (0.05% (w/v) in DMEM/F-12): liquid/solid
viscosity (0.05% (w/v) in DMEM/F-12): unmeasurable
state (0.1% (w/v) in DMEM/F-12): solid (gel)
viscosity (0.1% (w/v) in DMEM/F-12): unmeasurable
state (0.2% (w/v) in DMEM/F-12): solid (gel)
viscosity (0.2% (w/v) in DMEM/F-12): unmeasurable
